Format in all cases: in vivo
Test [1] relates to C57Bl/6N mice. As to the kind of experiment: Test for single-dose administration to mouse (peripheral platelet count). The settings on record: single dose 10 μg/kg through the tail vein. Here is the method:
Nine-week old male C57Bl/6N mice as purchased from Japan Charles River Co. Ltd. were used in the experiment. (Preparation of Drug Solutions to be Administered) Human PTH(1-84) was dissolved in a citrate buffer (pH-5; containing 0.05% of Tween 80) at final concentrations of 1, 0.2 and 0.04 μg/mL so as to prepare the drug solutions to be administered.
Each of the thus prepared drug solutions and a control (citrate buffer) was administered to 15 mice through the tail vein in a volume of 10 mL/kg. […] The administration was initiated at 10 a.m.
After 3, 6 and 9 hours of the administration, five mice were picked up at random from each group of animals and blood samples were withdrawn through the orbital vein. At 10 a.m. on the same day, separate blood samples were taken from untreated mice (four in number) to obtain the pre-administration value. Peripheral corpuscle counts were obtained with an automatic corpuscle counter F-800 (TOA MEDICAL ELECTRONICS CO., LTD.)

The subject of test [2] is C57Bl/6N mice. As to the kind of experiment: Test for daily administration to mouse (peripheral platelet count). To be noted: for platelet count: day 5. Here is the method: Nine-week old male C57Bl/6N mice as purchased from Japan Charles River Co., Ltd. were used in the experiment.
Drug solutions to be administered were prepared basically by the same procedure as in Example 1 to give drug concentrations of […].
The mice under test were divided into four groups, which were administered subcutaneously with the three drug solutions and a control (citrate buffer) once a day in a volume of 10 mL/kg. […] The administration was initiated at 10 a.m.
(Blood Sampling and Counting Peripheral Corpuscles) On days 5, 7 and 9 after the start of administration, five or six mice were picked up at random from each group of animals and blood samples were withdrawn through the orbital vein. The sampling of blood was timed to occur 24 h of the final administration. Separate blood samples were taken from untreated mice (five in number) to obtain the value for normal mouse. Peripheral corpuscle counts were obtained with an automatic corpuscle counter F-800 (TOA MEDICAL ELECTRONICS CO., LTD.)

Test [3] has as its system C57Bl/6N mice. Description: Effectiveness of PTH derivative, daily administration to mouse (peripheral platelet count). The settings on record: 200 μg/kg subcutaneously once a day for six days, blood 24 h after final administration. Here is the method:
Ten-week old male C57Bl/6N mice as purchased from Japan Charles River Co., Ltd. were used in the experiment.
Drug solutions to be administered were prepared basically from human PTH(1-84) and human PTH(1-34) by the same procedure as in Example 1 to give a drug concentration of 20 μg/mL.
Eighteen mice were divided into three groups, which were administered subcutaneously with the two drug solutions and a control (citrate buffer) for six days on a once-a-day basis in a volume of 10 mL/kg. […] The administration was initiated at 10 a.m.
After 24 h of the final administration, a blood sample was withdrawn from each mouse through the orbital vein. Peripheral corpuscle counts were obtained with an automatic corpuscle counter F-800 (TOA MEDICAL ELECTRONICS CO., LTD)

Test [4] relates to Japanese albino rabbits JW/CSK. Description: Test for daily administration to rabbit (platelet count). The settings on record: 200 μg/kg subcutaneously daily. The procedure:
Six 12-15 week old male Japanese albino rabbits JW/CSK were used in the experiment. The animals were individually kept in aluminum rabbit bracket cages Rb-1 (350^w×500^d×350^h mm) in a vavarium in a specific pathogen-free environment under the following conditions: temperature, 24±2° C.; humidity, 50±10%; illumination, light turned on at 5:00 and turned off at 19:00; ventilation, 15 changes/hr. Each animal was supplied with 120 g of a radiation-sterilized feed for rabbits RM (purchased from Funahashi Farm) per day. The animals were also allowed to drink to tap water ad libitum from an automatic water feeder.
Human PTH(1-84) was administered in a volume of 2 mL/vial at a concentration of 200 μg/mL. A solvent was also supplied in a volume of 2 mL/vial. Both the drug and the control were stored at −135° C. until use.
PTH (200 μg/kg) was administered to the rabbits subcutaneously at the back of their neck for 13 consecutive days. The solvent was similarly administered in the same volume as the dose of a rh-PTH solution calculated from their body weight.
Blood samples (0.5 mL) were withdrawn from the rabbits through the lateral auricular vein before the administration and on days 2, 6, 9 and 13 during the administration period. […]

B1: human PTH(1-84) (protein, UniProt P01270 32-115, looked up)
Parathyroid hormone: SVSEIQLMHNLGKHLNSMERVEWLRKKLQDVHNFVALGAPLAPRDAGSQRPRKKEDNVLVESHEKSLGEADKADVNVLTKAKSQ
modifications: Parathyroid hormone
Regarding B1, the “platelet counts over the control” value in test [1] (6 h after the administration) and in test [1] (9 h after the administration) was “significant increase” each time. For the same molecule, the platelet count entry in test [2] (200 μg/kg subcutaneously once a day) and in test [2] (800 μg/kg subcutaneously once a day) was “tendency to increase” in each case. Besides, the “platelet count versus the control” value in test [2] (all treated groups (50, 200, 800 μg/kg subcutaneously once a day), day 7) is given as “significantly higher”. Also, the platelet increasing action result in test [3] is “platelet increasing action”. Moreover, the “platelet count relative to the initial level” value in test [4] (day 13) is reported as “substantially returned to the initial level”. Besides, the “platelet count relative to the initial value” in test [4] (increase from day 2 until day 6) is given as “two to four”.

The values are drawn from patent publication US6342477B1, “Remedies for thrombocytopenia” (Chugai Seiyaku Kabushiki Kaisha, priority 1996, dated 2002).
